Test results from US20220054617A1, “SUBUNIT VACCINE CONSTRUCTS FOR FLAVIVIRUSES” (priority 2018, published 2022).
Entries after “also recorded” stand apart in the source; their conditions may differ.

Legend:
DENV-1 = test: ADE / protection against DENV-1 by rabbit antisera (CPE/cell death, 4G2 immunostain); format: cell-based, dengue virus; conditions: in vitro challenge
DENV-4 = test: ADE / protection against DENV-4 by rabbit antisera (CPE/cell death, 4G2 immunostain); format: cell-based, dengue virus; conditions: in vitro challenge
DENV-1 antigen = molecular target: T1, DENV-1 antigen (Dengue virus type 1, UniProt P17763, A649T/F617I/M577V/S619T/V660I); test: Serological cross reactivity matrix (ELISA), DENV-1 antigen; format: binding; conditions: Immune-2 rabbit sera
T1 construct: made in house; host or cells: E. coli BL21(DE3)-pRARE
T1 sequence (P17763 571-673, looked up, stated change not applied): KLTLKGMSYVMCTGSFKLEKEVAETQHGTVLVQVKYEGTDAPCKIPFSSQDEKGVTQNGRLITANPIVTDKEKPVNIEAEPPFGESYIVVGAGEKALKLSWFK
Source text: (§1) FIG. 10B-FIG. 10C show exemplary results of a serological cross reactivity matrix. Immune-2 sera from rabbits immunized with the 6 antigens were screened by ELISA for homologous titers. Samples with highest titers were examined for immunoreactivity with all antigens. […] DENV-1 Ag is recognized by anti-DENV-3 and anti-ZIKV antisera. Conversely, anti-DENV-3 antisera recognizes ZIKV antigen. Anti-ZIKV antisera recognizes WNV antigen very strongly.

ZIKV antigen = molecular target: T2, ZIKV antigen (Zika virus, UniProt Q32ZE1); test: Serological cross reactivity matrix (ELISA), ZIKV antigen; format: binding; conditions: Immune-2 rabbit sera
T2 construct: made in house; host or cells: E. coli BL21(DE3)-pRARE
T2 sequence (Q32ZE1 582-689, looked up, natural form): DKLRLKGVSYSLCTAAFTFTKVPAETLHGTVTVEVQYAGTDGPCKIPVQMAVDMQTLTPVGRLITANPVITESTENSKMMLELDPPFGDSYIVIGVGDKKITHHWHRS
Source text: as §1

DENV-2 = test: Seroconversion, DENV-2-specific IgG titers; format: in vivo, rabbits; conditions: three immunization regimes of Table 8
Protocol: (§2) Pre-immune test-bleeds are first obtained from adult New Zealand White rabbits via venipuncture of the marginal vein of the ear on Day 1. The rabbits are immunized intramuscularly in the flank region with (a) 10 μg of antigen in 0.2 mL saline (n=4 for non-adjuvanted, antigen+saline control cohort), or (b) 10 μg of antigen plus 100 μg of adjuvant in 0.2 mL saline (n=4 for antigen+adjuvant test cohorts). An aqueous formulation for all adjuvants and antigens is ensured. Animals are immunized on Days 1, 15, and 28. A final test-bleed is performed via the marginal vein of the ear on Day 38. Sera may be banked at −80° C. for further analysis.
(§3) Rabbits (n=4/cohort) were immunized with 10 μg each antigen per dose as described in the Standardized Rabbit Model of Immunogenicity modified as shown in Table 8.

DENV-3 = test: Seroconversion, DENV-3-specific IgG titers; format: in vivo, rabbits; conditions: three immunization regimes of Table 8
Protocol: as §2, §3

B1: DENV-3: DENV-3 E-glycoprotein subunit antigen, SEQ ID NO: 4 (protein)
chain: SNALKGMSYAMCTNTFVLKKEVSETQHGTILIKVEYKGEDAPCKIPFSTEDGQGKAHNGRLITANPVVTKKEEPVNIEAEPPFGESNIVIGIGDNALKINWYKK
modifications: Dengue virus 3
protection / neutralization against DENV-1 (heterologous) (DENV-1): neutralizes; also recorded: prominent heterologous protection
protection / neutralization against DENV-4 (heterologous) (DENV-4): neutralizes
cross-reactivity of antisera with DENV-1 antigen (DENV-1 antigen): Significant cross-reactivity; also recorded: recognized
cross-reactivity of antisera with ZIKV antigen (ZIKV antigen): reciprocal cross-reactivity was evident; also recorded: recognizes

B2: SGp(L)-DENV-2: SGp(L) fusion of DENV-2 antigen, SEQ ID NO: 39 (protein)
chain: MHHHHHHSTSLAEAKVLANRELDKYGVSDYYKNLINNAKTVEGVKALIDEILAALPKGTQLKGMSYSMCTGKFKVVKEIAETQHGTIVVRVQYEGDGSPCKIPFEIMDLEKRHVLGRLITVNPIVTEKDSPVNIEAEPPFGDSYIIIGVEPGQLKLSWFKK
seroconversion (DENV-2-specific IgG titers) (DENV-2): equivalence between all three immunization regimes

B3: SGp(L)-DENV-3: SGp(L) fusion of DENV-3 antigen, SEQ ID NO: 40 (protein)
chain: MHHHHHHSTSLAEAKVLANRELDKYGVSDYYKNLINNAKTVEGVKALIDEILAALPKGTLKGMSYAMCTNTFVLKKEVSETQHGTILIKVEYKGEDAPCKIPFSTEDGQGKAHNGRLITANPVVTKKEEPVNIEAEPPFGESNIVIGIGDNALKINWYKK
seroconversion (DENV-3-specific IgG titers) (DENV-3): equivalence between all three immunization regimes
